Reference: the supplement of paper PMC10724198
± gives the standard deviation of the averaged measurements.

System: Saccharomyces cerevisiae
Test: protein stability index of tFT-peptide fusion (C-terminal peptide) (PSI (0-1 scale)); higher = more stable (slower turnover)
Settings: temperature: 30 C
Description: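 MPS profiling in S. cerevisiae of the yeast C-terminome library: the last 12 aa of each annotated ORF are fused to the C-terminus of a sfGFP-mCherry timer, after a GGGS linker. Cells are FACS-sorted into 8 mCherry/sfGFP bins and deep-sequenced. PSI runs from 0 (unstable) to 1 (stable); wild type and das1Δ backgrounds, two technical replicates each.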

[1] = genetic background: das1 deletion

## KYFADLTQSITK [YBR242W C-terminal 12 aa]
[1]
  protein stability index: 0.719 ± 0.051
Genetic background: wild type
  protein stability index: 0.687 ± 0.029

## AFFAVILLYIPG [YKR073C C-terminal 12 aa]
[1]
  protein stability index: 0.287 ± 0.027
Genetic background: wild type
  protein stability index: 0.302 ± 0.018

## LQMVKNAKDLST [CYR1 C-terminal 12 aa]
[1]
  protein stability index: 0.6866 ± 0.0026
Genetic background: wild type
  protein stability index: 0.694 ± 0.016

## LNELGEFKVINS [NPR2 C-terminal 12 aa]
[1]
  protein stability index: 0.689 ± 0.014
Genetic background: wild type
  protein stability index: 0.6914 ± 0.0059

## RYRLEKVIGKRW [SPO20 C-terminal 12 aa]
[1]
  protein stability index: 0.704 ± 0.03
Genetic background: wild type
  protein stability index: 0.676 ± 0.022

## KFFLTISADVSF [YNL057W C-terminal 12 aa]
[1]
  protein stability index: 0.6369 ± 0.0022
Genetic background: wild type
  protein stability index: 0.647 ± 0.03

## QEANDDLMIDVN [ENP1 C-terminal 12 aa]
[1]
  protein stability index: 0.678 ± 0.045
Genetic background: wild type
  protein stability index: 0.699 ± 0.015

## MSLMRKAYHFWC [BAP2 C-terminal 12 aa]
[1]
  protein stability index: 0.726 ± 0.024
Genetic background: wild type
  protein stability index: 0.619 ± 0.039

## LTVTRWKLQITG [YPR160W-A C-terminal 12 aa]
[1]
  protein stability index: 0.659 ± 0.013
Genetic background: wild type
  protein stability index: 0.4486 ± 0.0032

## LRSKVKNHAQRH [YLR428C C-terminal 12 aa]
[1]
  protein stability index: 0.714 ± 0.018
Genetic background: wild type
  protein stability index: 0.693 ± 0.021

## NRRSDKNLPDAT [STE12 C-terminal 12 aa]
[1]
  protein stability index: 0.7085 ± 0.002
Genetic background: wild type
  protein stability index: 0.694 ± 0.0077

## NLANDEQPLHNL [MDM30 C-terminal 12 aa]
[1]
  protein stability index: 0.699 ± 0.02
Genetic background: wild type
  protein stability index: 0.659 ± 0.03

## DALDIANRIGYI [RPL25 C-terminal 12 aa]
[1]
  protein stability index: 0.668 ± 0.027
Genetic background: wild type
  protein stability index: 0.683 ± 0.012

## STDETPDNENKQ [SGT2 C-terminal 12 aa]
[1]
  protein stability index: 0.6998 ± 0.0031
Genetic background: wild type
  protein stability index: 0.67 ± 0.0077

## GKSHPFHSSDRY [YJL211C C-terminal 12 aa]
[1]
  protein stability index: 0.6884 ± 0.0033
Genetic background: wild type
  protein stability index: 0.699 ± 0.023

## TQSGDDYTIRLT [APM1 C-terminal 12 aa]
[1]
  protein stability index: 0.703 ± 0.015
Genetic background: wild type
  protein stability index: 0.698 ± 0.014

## SSVKKKLYPKSK [RIM11 C-terminal 12 aa]
[1]
  protein stability index: 0.704 ± 0.015
Genetic background: wild type
  protein stability index: 0.693 ± 0.073

## YLVHNNADEKSN [CUZ1 C-terminal 12 aa]
[1]
  protein stability index: 0.704 ± 0.034
Genetic background: wild type
  protein stability index: 0.695 ± 0.05

## QSSHFGQVDEII [DUR3 C-terminal 12 aa]
[1]
  protein stability index: 0.684 ± 0.046
Genetic background: wild type
  protein stability index: 0.726 ± 0.04

## INDWLSSWKRSK [CRR1 C-terminal 12 aa]
[1]
  protein stability index: 0.756 ± 0.017
Genetic background: wild type
  protein stability index: 0.727 ± 0.021

## RLTSRSGSANRA [SAC7 C-terminal 12 aa]
[1]
  protein stability index: 0.706 ± 0.028
Genetic background: wild type
  protein stability index: 0.65006 ± 5.7e-05

## HIDIPDFSKWDV [SUL1 C-terminal 12 aa]
[1]
  protein stability index: 0.7412 ± 0.0047
Genetic background: wild type
  protein stability index: 0.718 ± 0.016

## DQFQKVEKSIVK [RRF1 C-terminal 12 aa]
[1]
  protein stability index: 0.69 ± 0.02
Genetic background: wild type
  protein stability index: 0.675 ± 0.061

## IKYNWERCFNGE [YDR521W C-terminal 12 aa]
[1]
  protein stability index: 0.71 ± 0.014
Genetic background: wild type
  protein stability index: 0.697 ± 0.04

## FHPLFYCSALVF [YIL142C-A C-terminal 12 aa]
[1]
  protein stability index: 0.256 ± 0.016
Genetic background: wild type
  protein stability index: 0.277 ± 0.015

## LGSSMVQGRSIR [YPK1 C-terminal 12 aa]
[1]
  protein stability index: 0.71 ± 0.024
Genetic background: wild type
  protein stability index: 0.661 ± 0.0085

## KEFQNSDIADLY [SGV1 C-terminal 12 aa]
[1]
  protein stability index: 0.714 ± 0.01
Genetic background: wild type
  protein stability index: 0.686 ± 0.017

## TRPPCSPIAGYA [YOR345C C-terminal 12 aa]
[1]
  protein stability index: 0.608 ± 0.017
Genetic background: wild type
  protein stability index: 0.628 ± 0.012

## TGLAGEGDTLVT [TAG1 C-terminal 12 aa]
[1]
  protein stability index: 0.694 ± 0.007
Genetic background: wild type
  protein stability index: 0.685 ± 0.021

## RTHAMLNDIQNI [BNR1 C-terminal 12 aa]
[1]
  protein stability index: 0.72 ± 0.022
Genetic background: wild type
  protein stability index: 0.721 ± 0.091

## CCCFLLELVCDN [YDR210W C-terminal 12 aa]
[1]
  protein stability index: 0.512 ± 0.013
Genetic background: wild type
  protein stability index: 0.523 ± 0.018

## TLDRASNCWRGT [YBL006W-A C-terminal 12 aa]
[1]
  protein stability index: 0.709 ± 0.016
Genetic background: wild type
  protein stability index: 0.714 ± 0.062

## QRTVKQEGNKGG [GZF3 C-terminal 12 aa]
[1]
  protein stability index: 0.712 ± 0.021
Genetic background: wild type
  protein stability index: 0.69986 ± 0.00047

## QPKIEINVDQYD [SPC1 C-terminal 12 aa]
[1]
  protein stability index: 0.691 ± 0.047
Genetic background: wild type
  protein stability index: 0.6919 ± 0.0036

## KVKRLMDFLEED [NSL1 C-terminal 12 aa]
[1]
  protein stability index: 0.678 ± 0.0098
Genetic background: wild type
  protein stability index: 0.694 ± 0.024

## THLQQVAVSGQA [SEC23 C-terminal 12 aa]
[1]
  protein stability index: 0.572 ± 0.0092
Genetic background: wild type
  protein stability index: 0.618 ± 0.014

## FVKTIADTLSFS [PRR1 C-terminal 12 aa]
[1]
  protein stability index: 0.6997 ± 0.0036
Genetic background: wild type
  protein stability index: 0.7061 ± 0.0011

## RLLSLWEVFQMA [RPC82 C-terminal 12 aa]
[1]
  protein stability index: 0.646 ± 0.027
Genetic background: wild type
  protein stability index: 0.6182 ± 0.0037

## NVKVKALQRMTW [TIS11 C-terminal 12 aa]
[1]
  protein stability index: 0.6967 ± 0.0018
Genetic background: wild type
  protein stability index: 0.729 ± 0.039

## ATVSKIIKLDRK [MYO4 C-terminal 12 aa]
[1]
  protein stability index: 0.711 ± 0.0089
Genetic background: wild type
  protein stability index: 0.691 ± 0.025

## ADFLAKKGASRR [RNH1 C-terminal 12 aa]
[1]
  protein stability index: 0.6944 ± 0.002
Genetic background: wild type
  protein stability index: 0.698 ± 0.03
